This series concerns the target KRAS G12D (GMPPNP-loaded) G12D (Homo sapiens) (UniProt P01116). Kind of series: inhibition. The conditions noted are these: Raf-1 binding remaining vs no aptamer, average of four aptamers at 5x KRAS; PBS, 37 C, ELISA.
The sequence “NNNNNNNNNNNNGGNCATNNGATCATGNNCCGGGTTCGGNTGGGGGGNNNNNNCATGATCTACTTGACTAGTANATGNCCNNNNNN [NBK1]” came in with an activity of 50%. For the sequence “NNNNNNNNNNNNNNNCATANNNNNCGGTACGTCCGNNTATGNGTGGGNGGTAAGGGAGACCNCNTGACTAGTACANNNCCACNNNN [NBK2]”, the activity was found to be 50%. With “NCATANNNNNCGGTACGTCCGNNTATGNGTGGGNGGTAAGGGAGACCNCNTGACTAGTACANNNCCACN [NBK2-1]” the figure was 50%. With “NNNNNNNNGATCATGNNCCGGGTTCGGNTGGGGGGNNNNNNCATGATCTACTTGACTAGTNNN [NBK1-1]”, the activity is 50%.
